What was measured:
[1] = system: GFP-14-3-3β and its binding proteins; assay: GFP-14-3-3β co-IP with LC-MS/MS label-free quantification, untreated versus PP1c-treated; set-up: species or system human; conditions: label-free quantification
Protocol: (§1) HeLa Kyoto cells expressing transiently transfected pEGFP(C1)-14-3-3β or pEGFP(C1) control plasmid, were incubated with 20 nM Calyculin A (# 9902 S, Cell Signaling Technology) for 12 min. Cells were washed twice on ice with cold PBS and after addition of 500 µL lysis buffer (100 mM NaCl, 10 mM Tris, 0.1% IGEPAL, 1 mM EDTA, 1 mM EGTA, 20 nM Calyculin A, 1x cOmplete Mini protease inhibitor cocktail (Sigma), 1 mM DTT, 1 mM MnCl2) cells were scraped from plates, lysed by 10 pushes through an injection needle (21 G, BD) and the insoluble fraction was pelleted by centrifugation (10 min, 10^4 rcf, 4 °C). Supernatants were then subjected to incubation with 1 µM recombinant phosphatase or buffer for 1 h at 30 °C. Next, we subjected samples to immunoprecipitation using α-GFP nanobodies covalently coupled to agarose beads (2 h, 4 °C, obtained from the EMBL PEPcore Core Facility). Beads were then washed three times with lysis buffer and samples were eluted in 1x LDS sample buffer (Thermo Fisher Scientific) by heating to 70 °C for 10 min.
(§2) The samples were then reduced with 25 mM dithiothreitol (10 min at 70 °C) and alkylated with 55 mM chloroacetamide (room temperature, 30 min, in the dark). Proteins were run on a precast 4–12% NuPAGE gel (ThermoFisher Scientific) for about 1 cm to concentrate the sample prior to in-gel tryptic digestion, which was performed according to the standard procedures. The peptides obtained were dried to completeness and resuspended in 12 µL of buffer A (0.1% FA), and 5 µL of sample were injected per MS measurement. The experiment was carried out in three independent replicates.
(§3) The samples were analyzed by LC-MS/MS on a Dionex Ultimate 3000 nano-HPLC coupled online to a Fusion Lumos Tribrid mass spectrometer (Thermo Fisher Scientific). Peptides were delivered to a trap column (75 µm × 2 cm, packed in-house with 5 µm C18 resin; Reprosil PUR AQ, Dr. Maisch) and washed using 0.1% FA at a flow rate of 5 µL/min for 10 min. Subsequently, peptides were transferred to an analytical column (75 µm × 45 cm, packed in-house with 3 µm C18 resin; Reprosil Gold) applying a flow rate of 300 nL/min and separated using a 60 min linear gradient from 4% to 32% LC solvent B (0.1% FA, 5% DMSO in ACN) in LC solvent A (0.1% FA in 5% DMSO). The eluate from the analytical column was sprayed via a stainless steel emitter (Thermo Fisher Scientific) at a source voltage of 2.1 kV into the mass spectrometer. The transfer capillary was heated to 275 °C. The Fusion Lumos was operated in positive ionization mode and data-dependent acquisition (DDA), automatically switching between MS1 and MS2 spectrum acquisition. Full scan MS1 spectra were recorded in the Orbitrap from 360 to 1300 m/z at a resolution of 60k (automatic gain control (AGC) target value of 4e5 charges, maximum injection time (maxIT) of 50 ms). Up to 20 peptide precursors were isolated (isolation window, 1.7 m/z; maximum injection time, 25 ms; and AGC value, 1e5), fragmented by high-energy collision-induced dissociation (HCD) using 30% normalized collision energy (NCE), and analyzed at a resolution of 15k in the Orbitrap. Precursor ions that were singly charged, unassigned, or with charge states >6+ were excluded. The dynamic exclusion duration of fragmented precursor ions was 20 s.
(§4) Peptide and protein identification and LFQ were performed using MaxQuant software (version 1.6.1.0)[64] by searching the data against all canonical protein sequences as annotated in the Swissprot reference database (human proteins only, 20193 entries, downloaded 22 March 2016, internally annotated with PFAM domains) using the embedded search engine Andromeda[65]. The MaxQuant search was performed using two variable modifications; oxidation of methionine and N-terminal protein acetylation. Carbamidomethylation on cysteines was specified as a fixed modification. Trypsin (Trypsin/P) was specified as the proteolytic enzyme with up to two allowed missed cleavage sites.

GFP-14-3-3β = GFP-14-3-3β co-IP with LC-MS/MS, untreated GFP-14-3-3β versus GFP control (14-3-3 interactome); format: binding, human; conditions: label-free quantification
Protocol: as §1, §2, §3, §4

B1: GNL3 (protein, UniProt Q9BVP2 1-549, looked up)
Guanine nucleotide-binding …: MKRPKLKKASKRMTCHKRYKIQKKVREHHRKLRKEAKKRGHKKPRKDPGVPNSAPFKEALLREAELRKQRLEELKQQQKLDRQKELEKKRKLETNPDIKPSNVEPMEKEFGLCKTENKAKSGKQNSKKLYCQELKKVIEASDVVLEVLDARDPLGCRCPQVEEAIVQSGQKKLVLILNKSDLVPKENLESWLNYLKKELPTVVFRASTKPKDKGKITKRVKAKKNAAPFRSEVCFGKEGLWKLLGGFQETCSKAIRVGVIGFPNVGKSSIINSLKQEQMCNVGVSMGLTRSMQVVPLDKQITIIDSPSFIVSPLNSSSALALRSPASIEVVKPMEAASAILSQADARQVVLKYTVPGYRNSLEFFTVLAQRRGMHQKGGIPNVEGAAKLLWSEWTGASLAYYCHPPTSWTPPPYFNESIVVDMKSGFNLEELEKNNAQSIRAIKGPHLANSILFQSSGLTNGIIEEKDIHEELPKRKERKQEEREDDKDSDQETVDEEVDENSSGMFAAEETGEALSEETTAGEQSTRSFILDKIIEEDDAYDFSTDYV
Difference (log2), PP1 vs untreated ([1]; PP1 vs untreated): 1.1838 log2
Difference (log2), untreated vs GFP (GFP-14-3-3β; untreated vs GFP): 2.229 log2

B2: ATP2A2 (protein, UniProt P16615 1-1042, looked up)
Sarcoplasmic/endoplasmic …: MENAHTKTVEEVLGHFGVNESTGLSLEQVKKLKERWGSNELPAEEGKTLLELVIEQFEDLLVRILLLAACISFVLAWFEEGEETITAFVEPFVILLILVANAIVGVWQERNAENAIEALKEYEPEMGKVYRQDRKSVQRIKAKDIVPGDIVEIAVGDKVPADIRLTSIKSTTLRVDQSILTGESVSVIKHTDPVPDPRAVNQDKKNMLFSGTNIAAGKAMGVVVATGVNTEIGKIRDEMVATEQERTPLQQKLDEFGEQLSKVISLICIAVWIINIGHFNDPVHGGSWIRGAIYYFKIAVALAVAAIPEGLPAVITTCLALGTRRMAKKNAIVRSLPSVETLGCTSVICSDKTGTLTTNQMSVCRMFILDRVEGDTCSLNEFTITGSTYAPIGEVHKDDKPVNCHQYDGLVELATICALCNDSALDYNEAKGVYEKVGEATETALTCLVEKMNVFDTELKGLSKIERANACNSVIKQLMKKEFTLEFSRDRKSMSVYCTPNKPSRTSMSKMFVKGAPEGVIDRCTHIRVGSTKVPMTSGVKQKIMSVIREWGSGSDTLRCLALATHDNPLRREEMHLEDSANFIKYETNLTFVGCVGMLDPPRIEVASSVKLCRQAGIRVIMITGDNKGTAVAICRRIGIFGQDEDVTSKAFTGREFDELNPSAQRDACLNARCFARVEPSHKSKIVEFLQSFDEITAMTGDGVNDAPALKKAEIGIAMGSGTAVAKTASEMVLADDNFSTIVAAVEEGRAIYNNMKQFIRYLISSNVGEVVCIFLTAALGFPEALIPVQLLWVNLVTDGLPATALGFNPPDLDIMNKPPRNPKEPLISGWLFFRYLAIGCYVGAATVGAAAWWFIAADGGPRVSFYQLSHFLQCKEDNPDFEGVDCAIFESPYPMTMALSVLVTIEMCNALNSLSENQSLLRMPPWENIWLVGSICLSMSLHFLILYVEPLPLIFQITPLNVTQWLMVLKISLPVILMDETLKFVARNYLEPGKECVQPATKSCSFSACTDGISWPFVLLIMPLVIWVYSTDTNFSDMFWS
Difference (log2), PP1 vs untreated ([1]; PP1 vs untreated): 1.1435 log2
Difference (log2), untreated vs GFP (GFP-14-3-3β; untreated vs GFP): -0.4794 log2

B3: CEP131 (protein, UniProt Q9UPN4 1-1083, looked up)
Centrosomal protein of 131 kDa: MKGTRAIGSVPERSPAGVDLSLTGLPPPVSRRPGSAATTKPIVRSVSVVTGSEQKRKVLEATGPGGSQAINNLRRSNSTTQVSQPRSGSPRPTEPTDFLMLFEGSPSGKKRPASLSTAPSEKGATWNVLDDQPRGFTLPSNARSSSALDSPAGPRRKECTVALAPNFTANNRSNKGAVGNCVTTMVHNRYTPSERAPPLKSSNQTAPSLNNIIKAATCEGSESSGFGKLPKNVSSATHSARNNTGGSTGLPRRKEVTEEEAERFIHQVNQATVTIQRWYRHQVQRRGAGAARLEHLLQAKREEQRQRSGEGTLLDLHQQKEAARRKAREEKARQARRAAIQELQQKRALRAQKASTAERGPPENPRETRVPGMRQPAQELSPTPGGTAHQALKANNTGGGLPAAGPGDRCLPTSDSSPEPQQPPEDRTQDVLAQDAAGDNLEMMAPSRGSAKSRGPLEELLHTLQLLEKEPDVLPRPRTHHRGRYAWASEVTTEDDASSLTADNLEKFGKLSAFPEPPEDGTLLSEAKLQSIMSFLDEMEKSGQDQLDSQQEGWVPEAGPGPLELGSEVSTSVMRLKLEVEEKKQAMLLLQRALAQQRDLTARRVKETEKALSRQLQRQREHYEATIQRHLAFIDQLIEDKKVLSEKCEAVVAELKQEDQRCTERVAQAQAQHELEIKKLKELMSATEKARREKWISEKTKKIKEVTVRGLEPEIQKLIARHKQEVRRLKSLHEAELLQSDERASQRCLRQAEELREQLEREKEALGQQERERARQRFQQHLEQEQWALQQQRQRLYSEVAEERERLGQQAARQRAELEELRQQLEESSSALTRALRAEFEKGREEQERRHQMELNTLKQQLELERQAWEAGRTRKEEAWLLNREQELREEIRKGRDKEIELVIHRLEADMALAKEESEKAAESRIKRLRDKYEAELSELEQSERKLQERCSELKGQLGEAEGENLRLQGLVRQKERALEDAQAVNEQLSSERSNLAQVIRQEFEDRLAASEEETRQAKAELATLQARQQLELEEVHRRVKTALARKEEAVSSLRTQHEAAVKRADHLEELLEQHRRPTPSTK
Difference (log2), PP1 vs untreated ([1]; PP1 vs untreated): 1.183 log2
Difference (log2), untreated vs GFP (GFP-14-3-3β; untreated vs GFP): 0.2298 log2

B4: CD55 (protein, UniProt P08174 35-353, looked up)
Complement decay-accelerating …: DCGLPPDVPNAQPALEGRTSFPEDTVITYKCEESFVKIPGEKDSVICLKGSQWSDIEEFCNRSCEVPTRLNSASLKQPYITQNYFPVGTVVEYECRPGYRREPSLSPKLTCLQNLKWSTAVEFCKKKSCPNPGEIRNGQIDVPGGILFGATISFSCNTGYKLFGSTSSFCLISGSSVQWSDPLPECREIYCPAPPQIDNGIIQGERDHYGYRQSVTYACNKGFTMIGEHSIYCTVNNDEGEWSGPPPECRGKSLTSKVPPTVQKPTTVNVPTTEVSPTSQKTTTKTTTPNAQATRSTPVSRTTKHFHETTPNKGSGTTS
Difference (log2), PP1 vs untreated ([1]; PP1 vs untreated): 1.129 log2
Difference (log2), untreated vs GFP (GFP-14-3-3β; untreated vs GFP): -1.764 log2

B5: PKP3 (protein, UniProt Q9Y446 1-797, looked up)
Plakophilin-3: MQDGNFLLSALQPEAGVCSLALPSDLQLDRRGAEGPEAERLRAARVQEQVRARLLQLGQQPRHNGAAEPEPEAETARGTSRGQYHTLQAGFSSRSQGLSGDKTSGFRPIAKPAYSPASWSSRSAVDLSCSRRLSSAHNGGSAFGAAGYGGAQPTPPMPTRPVSFHERGGVGSRADYDTLSLRSLRLGPGGLDDRYSLVSEQLEPAATSTYRAFAYERQASSSSSRAGGLDWPEATEVSPSRTIRAPAVRTLQRFQSSHRSRGVGGAVPGAVLEPVARAPSVRSLSLSLADSGHLPDVHGFNSYGSHRTLQRLSSGFDDIDLPSAVKYLMASDPNLQVLGAAYIQHKCYSDAAAKKQARSLQAVPRLVKLFNHANQEVQRHATGAMRNLIYDNADNKLALVEENGIFELLRTLREQDDELRKNVTGILWNLSSSDHLKDRLARDTLEQLTDLVLSPLSGAGGPPLIQQNASEAEIFYNATGFLRNLSSASQATRQKMRECHGLVDALVTSINHALDAGKCEDKSVENAVCVLRNLSYRLYDEMPPSALQRLEGRGRRDLAGAPPGEVVGCFTPQSRRLRELPLAADALTFAEVSKDPKGLEWLWSPQIVGLYNRLLQRCELNRHTTEAAAGALQNITAGDRRWAGVLSRLALEQERILNPLLDRVRTADHHQLRSLTGLIRNLSRNARNKDEMSTKVVSHLIEKLPGSVGEKSPPAEVLVNIIAVLNNLVVASPIAARDLLYFDGLRKLIFIKKKRDSPDSEKSSRAASSLLANLWQYNKLHRDFRAKGYRKEDFLGP
Difference (log2), PP1 vs untreated ([1]; log2 difference, pairwise comparison PP1 vs untreated, 3 replicates each): 2.782
Difference (log2), untreated vs GFP (GFP-14-3-3β; log2 difference, pairwise comparison untreated vs GFP, 3 replicates each): -1.082

— publication PMC7367873, “Dissecting the sequence determinants for dephosphorylation by the catalytic subunits of phosphatases PP1 and PP2A” (Nature Communications, 2020)
